These results are taken from US20170240635A1 (AGENCY FOR SCIENCE TECHNOLOGY AND RESEARCH, published 2017).

The target of experiment [1] is T1, human PD-1 coupled to human Fc (human, UniProt Q15116 25-167, limits assumed).
T1 construct: also called human-PD-1 coupled to Fc; not shown: human Fc
As to the kind of experiment: SPR (ProteOn XPR36); human PD-1-Fc immobilised, crude Fab extract flown over. The protocol:
Briefly, human or mouse PD-1 coupled to human Fc was immobilised on a sensor chip compatible with the Proteon XPR36 bioanalyser (Biorad). Crude Fab extracts (or the control antibodies) were then flown onto the chip and the association/dissociation of each candidate Fab was then recorded and analysed, the affinity (KD) was calculated.

Another experiment concerns the target T2, hCTLA4-Fc (human, UniProt P16410).
T2 construct: also called human CTLA-4; human CTLA4
As to the kind of experiment: ELISA; antigen coated 350 ng/well, goat anti-human Fab-HRP, absorbance 450-670 nm. As for the experimental part: (§1) Anti-PD-1 antibodies were tested in an ELISA assay for their ability to bind to other members of the CD28 family.
(§2) Briefly, ELISA plates were coated with 350 ng/well of one of the following antigens coupled to human Fc in carbonate buffer: human PD-1, human PD-L1, human TIM-3, human LAG-3, human ICOS, human CTLA4, human BTLA, human CD28, mouse TIM-3, or rhesus PD-1. The plate was then blocked with a solution of casein. After extensive washes in PBS Tween-20, antibodies were added into the ELISA wells in the presence of 7% milk in PBS. After 90 minutes at room temperature under agitation and extensive washes, a goat anti-human Fab antibody coupled to HRP was added. One hour later, plates were washed and TMB substrate added. The reaction was stopped with 1M HCl and optical density measured at 450 nm with a reference at 670 nm.
On the technique in general: ELISA stands for enzyme-linked immunosorbent assay.

Another experiment has as its target T3, hICOS-Fc (human, UniProt Q9Y6W8).
T3 construct: also called human ICOS
T3 sequence (antigen, looked up): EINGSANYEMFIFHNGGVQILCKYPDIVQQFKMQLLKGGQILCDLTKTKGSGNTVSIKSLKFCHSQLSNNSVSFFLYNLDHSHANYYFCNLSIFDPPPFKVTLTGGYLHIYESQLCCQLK
The description is as above. The protocol:
as §1, §2

The target of a further experiment is T4, mTim3-Fc (mouse, UniProt Q8VIM0).
T4 construct: also called mouse TIM-3
T4 sequence (Q8VIM0 20-191 limits assumed): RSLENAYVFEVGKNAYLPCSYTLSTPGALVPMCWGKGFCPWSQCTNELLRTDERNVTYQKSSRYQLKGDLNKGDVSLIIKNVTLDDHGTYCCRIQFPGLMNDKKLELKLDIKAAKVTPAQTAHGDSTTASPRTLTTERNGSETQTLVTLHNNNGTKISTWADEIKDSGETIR
The description is as above. The protocol: as §1, §2

The target of experiment [2] is T5, human PD-L1 coupled to human Fc (human, UniProt Q9NZQ7 19-239, limits assumed).
T5 construct: ELISA coating antigen; not shown: human Fc
T5 sequence (Q9NZQ7 19-239 limits assumed): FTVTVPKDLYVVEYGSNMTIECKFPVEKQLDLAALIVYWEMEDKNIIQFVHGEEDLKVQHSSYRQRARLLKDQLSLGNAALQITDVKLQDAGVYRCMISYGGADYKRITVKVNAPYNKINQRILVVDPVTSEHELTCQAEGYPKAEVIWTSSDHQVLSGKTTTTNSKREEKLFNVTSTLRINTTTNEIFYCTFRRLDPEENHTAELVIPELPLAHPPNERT
The experiment is described as above. As for the experimental part: as §1, §2

Experiment [3] concerns the target T6, human TIM-3 coupled to human Fc (human, UniProt Q8TDQ0 22-200, limits assumed).
T6 construct: not shown: human Fc
Described as above. As for the experimental part:
as §1, §2

Experiment [4] concerns the target T7, human LAG-3 coupled to human Fc (human, UniProt P18627 23-450, limits assumed).
T7 construct: ELISA coating antigen; not shown: human Fc
T7 sequence (looked up): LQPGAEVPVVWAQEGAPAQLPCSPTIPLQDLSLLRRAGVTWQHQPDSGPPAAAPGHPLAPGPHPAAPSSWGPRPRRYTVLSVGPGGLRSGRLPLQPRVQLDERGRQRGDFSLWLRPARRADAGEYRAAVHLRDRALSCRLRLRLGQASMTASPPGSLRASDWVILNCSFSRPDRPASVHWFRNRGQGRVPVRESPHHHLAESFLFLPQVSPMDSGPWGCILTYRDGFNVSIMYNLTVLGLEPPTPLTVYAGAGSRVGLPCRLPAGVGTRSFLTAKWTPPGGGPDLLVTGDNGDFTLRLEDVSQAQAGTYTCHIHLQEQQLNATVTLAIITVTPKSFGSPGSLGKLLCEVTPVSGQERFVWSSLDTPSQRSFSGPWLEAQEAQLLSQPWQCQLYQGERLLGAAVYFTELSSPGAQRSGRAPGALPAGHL
Described as above. As for the experimental part:
as §1, §2

Experiment [5] concerns the target T8, human BTLA coupled to human Fc (human, UniProt Q7Z6A9 31-150, limits assumed).
T8 construct: ELISA coating antigen; not shown: human Fc
The description is as above. The protocol:
as §1, §2

Experiment [6] has as its target T9, human CD28 coupled to human Fc (human, UniProt P10747 19-152, limits assumed).
T9 construct: ELISA coating antigen; not shown: human Fc
Described as above. The protocol: as §1, §2

The target in experiment [7] is T10, PD-1 on exhausted human T cells (human, UniProt Q15116 25-288).
T10 construct: whole, on cells; T cells exhausted by 7 days of culture with allogeneic monocyte-derived dendritic cells
T10 sequence (Q15116 25-288): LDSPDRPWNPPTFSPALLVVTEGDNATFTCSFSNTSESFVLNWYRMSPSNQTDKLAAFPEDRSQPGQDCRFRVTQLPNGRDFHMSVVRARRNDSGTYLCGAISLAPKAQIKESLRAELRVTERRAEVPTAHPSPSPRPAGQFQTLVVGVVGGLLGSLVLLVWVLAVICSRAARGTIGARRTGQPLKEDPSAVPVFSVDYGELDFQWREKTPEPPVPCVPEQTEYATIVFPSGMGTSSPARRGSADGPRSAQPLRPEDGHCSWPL
Briefly: flow cytometry (MFI); IgG4 on human T cells activated 7 days with allogeneic DCs, fluorescent secondary antibody. As for the experimental part: 50,000 T cells isolated from a healthy donor were incubated in the presence of 5,000 monocyte-derived DCs from another donor for 7 days at 37° C. Antibodies, expressed as IgG4, were incubated with such activated T cells for 30 minutes in PBS. After a wash in PBS, a fluorescent labelled secondary antibody was added for 30 minutes and then washed in PBS. Cells were resuspended in FACS buffer and binding of the antibody to the cells was monitored by flow cytometry (FIGS. 6 and 7).
In general terms: Flow cytometry measures light scatter and fluorescence of single cells or particles in a stream.

One may read the Kd as the equilibrium constant for the complex coming apart. Lower therefore signals a tighter complex. Broadly, the EC50 is the midpoint of the concentration-response curve. High values mean weaker potency, low ones greater potency.

T8 sequence (Q7Z6A9 31-150 limits assumed): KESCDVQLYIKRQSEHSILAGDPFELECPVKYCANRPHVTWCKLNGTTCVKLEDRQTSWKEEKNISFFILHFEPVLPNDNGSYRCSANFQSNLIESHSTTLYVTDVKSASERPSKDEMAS
T2 sequence (P16410 37-162 limits assumed): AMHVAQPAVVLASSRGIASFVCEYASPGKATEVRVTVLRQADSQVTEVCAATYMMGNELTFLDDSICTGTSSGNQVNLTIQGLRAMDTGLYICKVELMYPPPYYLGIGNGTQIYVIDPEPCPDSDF
T1 sequence (Q15116 25-167 limits assumed): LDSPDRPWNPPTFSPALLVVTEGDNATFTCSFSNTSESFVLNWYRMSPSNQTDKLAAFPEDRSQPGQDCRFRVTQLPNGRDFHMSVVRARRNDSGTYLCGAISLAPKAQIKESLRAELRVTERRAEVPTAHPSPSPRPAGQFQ

B1: anti-PD-1 antibody clone G2 (Fab) (Fab, V domains shown)
VH: QVQLVESGGGVVQPGRSLRLSCAASGFTFSSYGMHWVRQAPGKGLEWVAVISYDGSNKYYADSVKGRFTISRDNSKNTLYLQMNSLRAEDTAVYYCASDLGAGPYYYGMDVWGQGTTVTVSS
VL: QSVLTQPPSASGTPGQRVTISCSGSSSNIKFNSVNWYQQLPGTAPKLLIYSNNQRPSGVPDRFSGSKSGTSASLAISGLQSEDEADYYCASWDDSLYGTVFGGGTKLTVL
notes: Crude Fab extract in SPR
The molecule B1 yielded a Kd in experiment [1] of 0.1 nM. Moreover, the binding result (with hCTLA4-Fc; in the experiment with hICOS-Fc; with mTim3-Fc; in [2]; in experiment [3]; in [4]) was “no binding (tested: not given)” throughout. For the same molecule, the binding result in [5] and in experiment [6] was “no binding (tested: not given)” in each case.

B2: G2 (antibody, IgG4, V domains shown)
VH: QVQLVESGGGVVQPGRSLRLSCAASGFTFSSYGMHWVRQAPGKGLEWVAVISYDGSNKYYADSVKGRFTISRDNSKNTLYLQMNSLRAEDTAVYYCASDLGAGPYYYGMDVWGQGTTVTVSS
VL: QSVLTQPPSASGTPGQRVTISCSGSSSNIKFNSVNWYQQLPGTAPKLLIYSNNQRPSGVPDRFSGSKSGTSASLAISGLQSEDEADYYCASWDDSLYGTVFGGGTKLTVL
notes: also called anti-PD-1 antibody clone G2 (human IgG4)
Molecule B2 displayed a concentration giving a half-maximal response (EC50) in [7] of 0.78 nM.

B3: H9 (antibody, IgG4, V domains shown)
VH: QVQLVESGGGVVQPGRSLRLSCAASGFTFSSYGMHWVRQAPGKGLEWVAVISYDGSNKYYADSVKGRFTISRDNSKNTLYLQMNSLRAEDTAVYYCASDLGAGPYYYGMDVWGQGTTVTVSS
VL: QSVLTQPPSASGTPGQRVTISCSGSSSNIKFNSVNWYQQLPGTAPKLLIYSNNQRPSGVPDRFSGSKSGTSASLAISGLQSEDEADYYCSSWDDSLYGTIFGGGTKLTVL
notes: also called anti-PD-1 antibody clone H9 (human IgG4)
In experiment [7], B3 showed an EC50 of 0.375 nM.

B4: G1 (antibody, IgG4, V domains shown)
VH: QVQLVESGGGVVQPGRSLRLSCAASGFTFSSYGMHWVRQAPGKGLEWVAVISYDGSNKYYADSVKGRFTISRDNSKNTLYLQMNSLRAEDTAVYYCASDLGAGPYYYGMDVWGQGTTVTVSS
VL: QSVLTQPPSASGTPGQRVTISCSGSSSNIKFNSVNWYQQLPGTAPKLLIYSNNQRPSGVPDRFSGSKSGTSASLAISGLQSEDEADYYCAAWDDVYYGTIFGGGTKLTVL
notes: also called anti-PD-1 antibody clone G1 (human IgG4)
In turn, B4 registered an EC50 in experiment [7] of 0.738 nM.

B5: anti-PD-1 antibody clone A3 (Fab) (Fab, V domains shown)
VH: QVQLVQSGGGVVQPGRSLRLSCAASGFTFSSYGMHWVRQAPGKGLEWVAVISYDGSNKYYADSVKGRFTISRDNSKNTLYLQMNSLRAEDTAVYYCASDLGAGPYYYGKDHWGQGTTVTVSS
VL: LPVLTQPPSASGTPGQRVTISCSGSSSNIKFNSVNWYQQLPGTAPKLLIYSNNQRPSGVPDRFSGSKSGTSASLAISGLQSEDEADYFCASWDDVLYGSVFGGGTKLTVL
notes: Flown as crude Fab extract in SPR
For the molecule B5, the Kd in experiment [1] was 0.2 nM. Moreover, the binding result (in the experiment with hCTLA4-Fc; with hICOS-Fc; with mTim3-Fc; in experiment [2]; in experiment [3]; in experiment [4]) was “no binding (tested: not given)” throughout. For the same molecule, the binding result in [5] and in [6] was “no binding (tested: not given)” throughout.

B6: C4 (antibody, IgG4, V domains shown)
VH: QVQLVESGGGVVQPGRSLRLSCAASGFTFSSYGMHWVRQAPGKGLEWVAVISYDGSNKYYADSVKGRFTISRDNSKNTLYLQMNSLRAEDTAVYYCASDLGAGPYYYGLDVWGQGTTVTVSS
VL: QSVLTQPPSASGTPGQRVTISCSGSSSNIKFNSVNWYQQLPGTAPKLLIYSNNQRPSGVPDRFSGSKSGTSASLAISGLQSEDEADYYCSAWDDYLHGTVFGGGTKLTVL
notes: also called anti-PD-1 antibody clone C4 (human IgG4)
On to B6, for which, in [7], the EC50 is 0.281 nM.

B7: D4 (antibody, IgG4, V domains shown)
VH: QVQLVESGGGVVQPGRSLRLSCAASGFTFSSYGMHWVRQAPGKGLEWVAVISYDGSNKYYADSVKGRFTISRDNSKNTLYLQMNSLRAEDTAVYYCASDLGAGPYYYGMDVWGQGTTVTVSS
VL: QSVLTQPPSASGTPGQRVTISCSGSSSNIKFNSVNWYQQLPGTAPKLLIYSNNQRPSGVPDRFSGSKSGTSASLAISGLQSEDEADYYCASWDDYVRGTMFGGGTKLTVL
notes: also called anti-PD-1 antibody clone D4 (human IgG4)
As to B7, the concentration for a half-maximal effect (EC50) in experiment [7] amounted to 0.318 nM.

B8: anti-PD-1 antibody clone H9 (Fab) (Fab, V domains shown)
VH: QVQLVESGGGVVQPGRSLRLSCAASGFTFSSYGMHWVRQAPGKGLEWVAVISYDGSNKYYADSVKGRFTISRDNSKNTLYLQMNSLRAEDTAVYYCASDLGAGPYYYGMDVWGQGTTVTVSS
VL: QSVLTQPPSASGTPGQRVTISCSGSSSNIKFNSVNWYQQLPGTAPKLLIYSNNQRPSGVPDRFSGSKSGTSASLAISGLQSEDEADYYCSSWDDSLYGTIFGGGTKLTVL
notes: Crude Fab extract in SPR
As to B8, the binding result (in the experiment with hCTLA4-Fc; in the experiment with hICOS-Fc; with mTim3-Fc; in [2]; in experiment [3]; in experiment [4]) was “no binding (tested: not given)” throughout. Further, the binding result in [5] and in experiment [6] was “no binding (tested: not given)” throughout.

B9: B6 (antibody, IgG4, V domains shown)
VH: QVQLVESGGGVVQPGRSLRLSCAASGFTFSSYGMHWVRQAPGKGLEWVAVISYDGSNKYYADSVKGRFTISRDNSKNTLYLQMNSLRAEDTAVYYCASDYGAGPYYYGMDVWGQGTTVTVSS
VL: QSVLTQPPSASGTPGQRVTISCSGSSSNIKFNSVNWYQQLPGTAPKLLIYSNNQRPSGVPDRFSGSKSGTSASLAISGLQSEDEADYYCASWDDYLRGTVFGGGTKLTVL
notes: also called anti-PD-1 antibody clone B6 (human IgG4)
In experiment [7], B9 showed an EC50 of 0.158 nM.

B10: F2 (antibody, IgG4, V domains shown)
VH: QVQLVESGGGVVQPGRSLRLSCAASGFTFSSYGMHWVRQAPGKGLEWVAVISYDGSNKYYADSVKGRFTISRDNSKNTLYLQMNSLRAEDTAVYYCASDLGAGPYYYGMDVWGQGTTVTVSS
VL: QSVLTQPPSASGTPGQRVTISCSGSSSNIKFNSVNWYQQLPGTAPKLLIYSNNQRPSGVPDRFSGSKSGTSASLAISGLQSEDEADYYCSSWDDDARGTIFGGGTKLTVL
notes: also called anti-PD-1 antibody clone F2 (human IgG4)
In experiment [7], B10 showed an EC50 of 0.446 nM.

B11: H4 (antibody, IgG4, V domains shown)
VH: QVQLVESGGGVVQPGRSLRLSCAASGFTFSSYGMHWVRQAPGKGLEWVAVISYDGSNKYYADSVKGRFTISRDNSKNTLYLQMNSLRAEDTAVYYCASDLGSGYYLYGMDVWGQGTTVTVSS
VL: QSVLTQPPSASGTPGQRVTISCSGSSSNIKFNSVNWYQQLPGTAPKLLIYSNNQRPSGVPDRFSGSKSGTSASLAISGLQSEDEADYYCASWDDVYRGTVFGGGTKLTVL
notes: also called anti-PD-1 antibody clone H4 (human IgG4)
Molecule B11 had an EC50 in experiment [7] of 0.189 nM.

B12: G10 (antibody, IgG4, V domains shown)
VH: QVQLVESGGGVVQPGRSLRLSCAASGFTFSSYGMHWVRQAPGKGLEWVAVISYDGSNKYYADSVKGRFTISRDNSKNTLYLQMNSLRAEDTAVYYCASDYGAGPYYYGMDVWGQGTTVTVSS
VL: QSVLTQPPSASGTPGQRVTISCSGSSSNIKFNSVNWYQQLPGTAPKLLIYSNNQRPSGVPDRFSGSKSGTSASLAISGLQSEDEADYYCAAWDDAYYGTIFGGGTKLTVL
notes: also called anti-PD-1 antibody clone G10 (human IgG4)
In [7], B12 displayed a half-maximal effective concentration (EC50) of 0.532 nM.

B13: E1 (antibody, IgG4, V domains shown)
VH: QVQLVESGGGVVQPGRSLRLSCAASGFTFSSYGMHWVRQAPGKGLEWVAVISYDGSNKYYADSVKGRFTISRDNSKNTLYLQMNSLRAEDTAVYYCASDLGAGPYYYGMDVWGQGTTVTVSS
VL: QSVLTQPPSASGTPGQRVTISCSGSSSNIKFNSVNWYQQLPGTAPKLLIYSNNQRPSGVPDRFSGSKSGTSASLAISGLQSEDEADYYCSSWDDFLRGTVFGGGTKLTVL
notes: also called anti-PD-1 antibody clone E1 (human IgG4)
In [7], B13 showed a concentration giving a half-maximal response (EC50) of 0.542 nM.
